This is an account of results in paper doi:10.1101/798371 (bioRxiv, 2019).

First the molecules themselves.
B2: Tom40 (natural protein, S. cerevisiae, UniProt P23644 1-387, looked up)
chain: MSAPTPLAEASQIPTIPALSPLTAKQSKGNFFSSNPISSFVVDTYKQLHSHRQSLELVNPGTVENLNKEVSRDVFLSQYFFTGLRADLNKAFSMNPAFQTSHTFSIGSQALPKYAFSALFANDNLFAQGNIDNDLSVSGRLNYGWDKKNISKVNLQISDGQPTMCQLEQDYQASDFSVNVKTLNPSFSEKGEFTGVAVASFLQSVTPQLALGLETLYSRTDGSAPGDAGVSYLTRYVSKKQDWIFSGQLQANGALIASLWRKVAQNVEAGIETTLQAGMVPITDPLMGTPIGIQPTVEGSTTIGAKYEYRQSVYRGTLDSNGKVACFLERKVLPTLSVLFCGEIDHFKNDTKIGCGLQFETAGNQELLMLQQGLDADGNPLQALPQL
B4: Tom22 (natural protein, S. cerevisiae, UniProt P49334 1-152, looked up)
chain: MVELTEIKDDVVQLDEPQFSRNQAIVEEKASATNNDVVDDEDDSDSDFEDEFDENETLLDRIVALKDIVPPGKRQTISNFFGFTSSFVRNAFTKSGNLAWTLTTTALLLGVPLSLSILAEQQLIEMEKTFDLQSDANNILAQGEKDAAATAN

Data set [1] addresses B2. In words: cryo-EM structure.
Data set [2] addresses B4. Put plainly: cryo-EM structure.
Data set [3] concerns the molecule itself. Put plainly: cryo-EM structure.
Data set [4] deals with the molecule itself. Put plainly: cryo-EM structure. This is another data set of the same source.
Data set [5] deals with the molecule itself. In words: SEC.
The target of data set [6] is B2. Put plainly: cryo-EM structure. This is another data set of the same source.

Values joined by “and” are separate entries in the source; they are usually repeats but may differ in a detail not shown here. Equal values may be shown once. Read-outs that look alike come from different tables or passages of the source.

On to MFGLPQQEVSEEEKRAHQEQTEKTLKQAAYVAAFLWVSPMIWHLVKKQWK (natural protein, S. cerevisiae, UniProt P80967 1-50, looked up) [Tom5], for which the binding result in data set [1] and in data set [2] was “binds” in each case.

B1: Tom7 (natural protein, S. cerevisiae, UniProt P53507 1-60, looked up)
chain: MSFLPSFILSDESKERISKILTLTHNVAHYGWIPFVLYLGWAHTSNRPNFLNLLSPLPSV
Take B1: the binding result in data set [1] was “binds”.
For the molecule B2, in data set [3], the binding result is reported as “binds”.

B3: core TOM complex (monomeric unit: Tom40, Tom22, Tom5, Tom6, Tom7) (complex, S. cerevisiae)
chain 1: MSAPTPLAEASQIPTIPALSPLTAKQSKGNFFSSNPISSFVVDTYKQLHSHRQSLELVNPGTVENLNKEVSRDVFLSQYFFTGLRADLNKAFSMNPAFQTSHTFSIGSQALPKYAFSALFANDNLFAQGNIDNDLSVSGRLNYGWDKKNISKVNLQISDGQPTMCQLEQDYQASDFSVNVKTLNPSFSEKGEFTGVAVASFLQSVTPQLALGLETLYSRTDGSAPGDAGVSYLTRYVSKKQDWIFSGQLQANGALIASLWRKVAQNVEAGIETTLQAGMVPITDPLMGTPIGIQPTVEGSTTIGAKYEYRQSVYRGTLDSNGKVACFLERKVLPTLSVLFCGEIDHFKNDTKIGCGLQFETAGNQELLMLQQGLDADGNPLQALPQL
chain 2: MVELTEIKDDVVQLDEPQFSRNQAIVEEKASATNNDVVDDEDDSDSDFEDEFDENETLLDRIVALKDIVPPGKRQTISNFFGFTSSFVRNAFTKSGNLAWTLTTTALLLGVPLSLSILAEQQLIEMEKTFDLQSDANNILAQGEKDAAATAN
chain 3: MFGLPQQEVSEEEKRAHQEQTEKTLKQAAYVAAFLWVSPMIWHLVKKQWK
chain 4: MDGMFAMPGAAAGAASPQQPKSRFQAFKESPLYTIALNGAFFVAGVAFIQSPLMDMLAPQL
chain 5: MSFLPSFILSDESKERISKILTLTHNVAHYGWIPFVLYLGWAHTSNRPNFLNLLSPLPSV
As a reminder, the stoichiometry N is a count of units in the complex or per binding partner. Regarding B3, the “stoichiometry N” value was 4 and 3 in data set [4]; 2 in data set [5].
Consider B4, for which the binding result in data set [6] is “binds”.

B5: Tom6 (natural protein, S. cerevisiae, UniProt P33448 1-61, looked up)
chain: MDGMFAMPGAAAGAASPQQPKSRFQAFKESPLYTIALNGAFFVAGVAFIQSPLMDMLAPQL
Consider B5, for which the binding result in data set [1] and in data set [4] was “binds” each time.
